Results as given in the supplement of paper PMC7125110.
± gives the standard error. Variants at the floor of the assay were thinned out.

B1: glmS ribozyme (parent)
chain: AUAAAAGCGCCAGAACUACAGAAAUGUAGUUGACGAGGAGGAGGUUUAUCGAAUUUUCGGCGGAUGCCUCCAAA

Experiments:
Details in all cases: with glucosamine-6-phosphate
glucosamine-6-phosphate [1] = variants of: B1; assay: self-cleavage kobs at 40 uM GlcN6P; higher = faster cleavage; RNA array
Summary of the method: (§1)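 In situ transcription by E. coli RNA polymerase produced barcoded ribozyme variants on sequenced MiSeq chips, and a hybridised Cy3 probe tracked them at 37 °C. Glucosamine-6-phosphate was flowed in at 40 μM to 10 mM in HEPES/KCl/Mg(OAc)2 buffer. kcat and KM were taken from weighted Michaelis–Menten fits of kobs values from exponential decay fits.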

glucosamine-6-phosphate [2] = variants of: B1; assay: self-cleavage kobs at 160 uM GlcN6P; higher = faster cleavage; RNA array
Summary of the method: as §1

glucosamine-6-phosphate [3] = variants of: B1; assay: self-cleavage kobs at 640 uM GlcN6P; higher = faster cleavage; RNA array
Summary of the method: as §1

glucosamine-6-phosphate [4] = variants of: B1; assay: self-cleavage kobs at 2500 uM GlcN6P; higher = faster cleavage; RNA array
Summary of the method: as §1

glucosamine-6-phosphate [5] = variants of: B1; assay: self-cleavage kobs at 10000 uM GlcN6P; higher = faster cleavage; RNA array
Summary of the method: as §1

| Variant | self-cleavage kobs at 40 uM GlcN6P (glucosamine-6-phosphate [1]) | self-cleavage kobs at 160 uM GlcN6P (glucosamine-6-phosphate [2]) | self-cleavage kobs at 640 uM GlcN6P (glucosamine-6-phosphate [3]) | self-cleavage kobs at 2500 uM GlcN6P (glucosamine-6-phosphate [4]) | self-cleavage kobs at 10000 uM GlcN6P (glucosamine-6-phosphate [5]) |
| --- | --- | --- | --- | --- | --- |
| A6C G7U | < 1e-05 s⁻¹ | < 1e-05 s⁻¹ | < 1e-05 s⁻¹ | < 1e-05 s⁻¹ | < 1e-05 s⁻¹ |
| A6G G29C G51A | < 1e-05 s⁻¹ | – | – | < 1e-05 s⁻¹ | < 1e-05 s⁻¹ |
| A6C C67G | < 1e-05 s⁻¹ | – | – | – | – |
| G7A C50U | < 1e-05 s⁻¹ | < 1e-05 s⁻¹ | < 1e-05 s⁻¹ | < 1e-05 s⁻¹ | < 1e-05 s⁻¹ |
| A6C G7U G35A C58U G60A | < 1e-05 s⁻¹ | – | < 1e-05 s⁻¹ | – | – |
| G7U G59U | < 1e-05 s⁻¹ | < 1e-05 s⁻¹ | – | < 1e-05 s⁻¹ | < 1e-05 s⁻¹ |
| C8A G38C | < 1e-05 s⁻¹ | < 1e-05 s⁻¹ | < 1e-05 s⁻¹ | – | < 1e-05 s⁻¹ |
| C8A G29U U57A G62C C67U | < 1e-05 s⁻¹ | – | – | – | – |
| C8U C58U C67U U69C | 0.00084 ± 0.00041 s⁻¹ | – | – | – | 0.000669 ± 0.00018 s⁻¹ |
| A6U A39C U47C A64U | < 1e-05 s⁻¹ | – | – | – | – |
| G7U A36G | < 1e-05 s⁻¹ | – | < 1e-05 s⁻¹ | < 1e-05 s⁻¹ | < 1e-05 s⁻¹ |
| A6U G13C A15U | < 1e-05 s⁻¹ | – | – | – | < 1e-05 s⁻¹ |
| A6U C8A | < 1e-05 s⁻¹ | < 1e-05 s⁻¹ | – | < 1e-05 s⁻¹ | < 1e-05 s⁻¹ |
| A6U U30C U56C | < 1e-05 s⁻¹ | – | – | – | – |
| G7U G62U | < 1e-05 s⁻¹ | < 1e-05 s⁻¹ | < 1e-05 s⁻¹ | < 1e-05 s⁻¹ | – |
| C8A G62C | < 1e-05 s⁻¹ | – | < 1e-05 s⁻¹ | < 1e-05 s⁻¹ | < 1e-05 s⁻¹ |
| A6U G13C G63U A64G | < 1e-05 s⁻¹ | – | – | – | – |
| A6G A14U U31A U57G | < 1e-05 s⁻¹ | < 1e-05 s⁻¹ | < 1e-05 s⁻¹ | – | < 1e-05 s⁻¹ |
| C8A U31A | < 1e-05 s⁻¹ | – | – | – | – |
| C8U G59A | < 1e-05 s⁻¹ | < 1e-05 s⁻¹ | < 1e-05 s⁻¹ | – | < 1e-05 s⁻¹ |
| G7U U31C C68G | 0.000102 ± 3.2e-05 s⁻¹ | – | – | – | – |
| C8G A12C U31C G32C | < 1e-05 s⁻¹ | – | – | – | – |

| Variant | self-cleavage kobs at 40 uM GlcN6P (glucosamine-6-phosphate [1]) | self-cleavage kobs at 160 uM GlcN6P (glucosamine-6-phosphate [2]) | self-cleavage kobs at 640 uM GlcN6P (glucosamine-6-phosphate [3]) | self-cleavage kobs at 2500 uM GlcN6P (glucosamine-6-phosphate [4]) | self-cleavage kobs at 10000 uM GlcN6P (glucosamine-6-phosphate [5]) |
| --- | --- | --- | --- | --- | --- |
| C8G U55C | < 1e-05 s⁻¹ | < 1e-05 s⁻¹ | < 1e-05 s⁻¹ | – | – |
| C8G U55A | < 1e-05 s⁻¹ | – | < 1e-05 s⁻¹ | < 1e-05 s⁻¹ | < 1e-05 s⁻¹ |
| G7U U46C C70G | < 1e-05 s⁻¹ | – | – | < 1e-05 s⁻¹ | < 1e-05 s⁻¹ |
| C8U A52U C58U A64C C70U | < 1e-05 s⁻¹ | < 1e-05 s⁻¹ | – | < 1e-05 s⁻¹ | – |
| G7C C16A | < 1e-05 s⁻¹ | < 1e-05 s⁻¹ | < 1e-05 s⁻¹ | < 1e-05 s⁻¹ | < 1e-05 s⁻¹ |
| C8U C10G | < 1e-05 s⁻¹ | – | < 1e-05 s⁻¹ | – | < 1e-05 s⁻¹ |
| G7A A12U A33C C58A A64G | < 1e-05 s⁻¹ | – | – | – | < 1e-05 s⁻¹ |
| A6G G51C | < 1e-05 s⁻¹ | < 1e-05 s⁻¹ | < 1e-05 s⁻¹ | < 1e-05 s⁻¹ | – |
| A6G U56C | < 1e-05 s⁻¹ | < 1e-05 s⁻¹ | < 1e-05 s⁻¹ | – | < 1e-05 s⁻¹ |
| G7C G59C | < 1e-05 s⁻¹ | < 1e-05 s⁻¹ | < 1e-05 s⁻¹ | < 1e-05 s⁻¹ | < 1e-05 s⁻¹ |
| G7U A53G U69G | 8.14e-05 ± 2.1e-05 s⁻¹ | – | 0.000822 ± 0.00023 s⁻¹ | 9.39e-05 ± 3.9e-05 s⁻¹ | 9.89e-05 ± 2e-05 s⁻¹ |
| A6U G43A U45G U57A G59U | < 1e-05 s⁻¹ | – | – | – | < 1e-05 s⁻¹ |
| A6C G44C | < 1e-05 s⁻¹ | < 1e-05 s⁻¹ | < 1e-05 s⁻¹ | – | < 1e-05 s⁻¹ |
| A6U C11G U46G C68A | < 1e-05 s⁻¹ | – | < 1e-05 s⁻¹ | < 1e-05 s⁻¹ | – |
| A6G G7C | < 1e-05 s⁻¹ | < 1e-05 s⁻¹ | – | < 1e-05 s⁻¹ | < 1e-05 s⁻¹ |
| C8A A39C | < 1e-05 s⁻¹ | < 1e-05 s⁻¹ | < 1e-05 s⁻¹ | – | < 1e-05 s⁻¹ |
| G7C A33U A48U | < 1e-05 s⁻¹ | – | – | – | – |
| C8G U30G G60A | < 1e-05 s⁻¹ | – | – | – | < 1e-05 s⁻¹ |
| C8A G40A | < 1e-05 s⁻¹ | – | < 1e-05 s⁻¹ | < 1e-05 s⁻¹ | – |
| A6C G7A G40A | < 1e-05 s⁻¹ | – | – | – | < 1e-05 s⁻¹ |
| A6U G35U | < 1e-05 s⁻¹ | < 1e-05 s⁻¹ | < 1e-05 s⁻¹ | < 1e-05 s⁻¹ | < 1e-05 s⁻¹ |
| A6G G60A U65G | < 1e-05 s⁻¹ | – | – | – | < 1e-05 s⁻¹ |
